Earlier results in publication PMC10925690.

Key:
[1] = target: FcγRIIIa V158 (Homo sapiens) (UniProt P08637); test: SPR; settings: cited from earlier work
[2] = target: FcγRIIIa F158 (Homo sapiens) (UniProt P08637); test: SPR; settings: cited from earlier work
FcγRIIIa F158 (Homo sapiens), sequence (P08637 17-254): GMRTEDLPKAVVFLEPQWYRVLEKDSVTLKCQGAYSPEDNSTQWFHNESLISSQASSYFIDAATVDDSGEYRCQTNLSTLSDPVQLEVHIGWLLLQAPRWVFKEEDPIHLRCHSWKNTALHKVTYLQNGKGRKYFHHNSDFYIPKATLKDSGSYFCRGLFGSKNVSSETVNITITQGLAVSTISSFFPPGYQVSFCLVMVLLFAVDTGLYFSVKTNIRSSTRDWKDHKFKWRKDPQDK

FcγRIIIa V158 (Homo sapiens), sequence (P08637 17-254): as above

IgG1 Fc Fc (from UniProt P01857)
Kd [1]: 400 nM
Kd [2]: 2500 nM
